# Reference: patent publication US20200308299A1 (published 2020)
# Residue numbers refer to the chain shown, from its start.
# B1: anti-Glypican-1 antibody clone K090-01a009 (antibody, V domains shown)
# VH: EVQLQQSGPELVKPGASVEISCKASGYSFTGYFMNWVKQSQGKSLEWIGRINPDNGDIFYNQKFKGKATLTVDKSSSTAHMELRSLTSEDSAVYYCARSWNWYFDVWGAGTTVTVSS
# VL: DIQMTQSPASLSASVGETVTITCRASENIYSYLAWYQQKQGKSPQLLVYNAKTLAEGVPSRFSGSGSGTQFSLKINSLQPEDFGSYYCQHHYGTPYTFGSGTKLEIKR
# B2: anti-Glypican-1 antibody clone K090-01a030 (antibody, V domains shown)
# VH: QVQLQQSGAELVRPGTSVKMSCKAAGYTFTNYWIGWVKQRPGHGLEWIGDIYPGGGYTHYNEKFKGKATLTADTSSSTAYMQLSSLTSEDSAIYYCARERVYYDGSRYFDVWGAGTTVTVSS
# VL: DIKMTQSPKFLPVSAGDRVTMTCKASQSVGNNVAWYQQKPGQSPKLLIYYASNRYTGVPDRFTGSGSGTDFTFTISSVQVEDLAVYFCQQHYSSPWTFGGGTKLEIKR
# B3: anti-Glypican-1 antibody clone K090-01a017 (antibody, V domains shown)
# VH: B2 VH with Q1E, A9G, I51L, Y103F
# VL: B2 VL with D1S, K3V, S7T
# B4: anti-Glypican-1 antibody clone K090-01a026 (antibody, V domains shown)
# VH: B2 VH with Q3H, Y108F
# VL: B2 VL with K3V, T5S
# B5: anti-Glypican-1 antibody clone K090-01a002 (antibody, V domains shown)
# VH: EVQLQQSGPELVKPGASVKISCKSSGYSFTRYYMHWVKHSPEKSLEWIGEINPSTGDTTYNQKFKAKATLTVDKSSSTAYMQLKSLTSEDSAVYYCAREKRDDGVLAYWGQGTLVTVSS
# VL: B2 VL with K3Q, W96L, G100A, I106L
# B6: anti-Glypican-1 antibody clone K090-02a014 (antibody, V domains shown)
# VH: EVQLQQSGPELVKPGASVKISCKASGYSFTGYYIHWVKQSPEKSLEWIGEINPSTGDITYNQKFKAKATLTVDKSSSTAYMQLKSLTSDDSAVYYCARERNYDRFAYWGQGTLVTVSS
# VL: SIVMTQTPALMAASPGEKVTITCSVSSSISSSNLHWYQQKSETSPKPWIYGTSNLASGVPVRFSGSGSGTSYSLTISSMEAEDAATYYCQQWSSYPLTFGAGTKLEIKR
# B7: anti-Glypican-1 antibody clone K090-02b006 (antibody, V domains shown)
# VH: EVQLVESGGGLVKPGGSRKLSCAASGFTFSDYGMHWVRQAPEKGLEWVAYISSGSSTIYYADTVKGRFTISRDNAKNTLFLQMTSLRSEDTAIYYCVRHSYYNYDIGGYYAMDYWGQGTSVTVSS
# VL: DIVLTQSPSSLSASLGERVSLTCRASQEISGYLSWLQQKPDGTIKRLIYAASTLDSGVPKRFSGSRSGSDYSLTISSLESEDFADYYCLQYASYPLTFGAGTKLEIKR
# B8: anti-Glypican-1 antibody clone K090-02a010 (antibody, V domains shown)
# VH: B7 VH with Q3K, S52N, E89G, I93M, V97A, N103S, I106V, Y109D, A111V
# VL: DIVLTQSPKFMSTSVGDRVSITCKASQDVGTAVAWYQQKPGQSPKLLIYWASTRHTGVPDRFTGSGSGTDFTLTISNVQSEDLADYFCQQYSSYPLTFGAGTKLEIKR
# B9: anti-Glypican-1 antibody clone K090-02a002 (antibody, V domains shown)
# VH: B7 VH with Q3K, I93M, V97A, N103S, I106V, Y109D, A111V
# VL: B8 VL with L4M, T5S
# B10: anti-Glypican-1 antibody clone K090-01a042 (antibody, V domains shown)
# VH: QVQLQQPGAELAKPGASVKMSCKASGYTFTRYWMHWVKQRPGQGLEWIGYINPSSGYTEYNQKFKDKATLTADKSSSTAYMQLSSLTSEDSAVYYCVRLGDYSYYFDYWGQGTTLTVSS
# VL: DVVMTQTPLSLPVSLGDQASISCRSSQSIVHSNGNTYLEWYLQKPGQSPKLLIYKVSNRFSGVPDRFSGSGSGTDFTLKISRVEAEDLGVYYCFQGSHVPWTFGGGTKLELKR
# B11: GPC1 (other)
# chain: DPASKSRSCGEVRQIYGAKGFSLSDVPQAEISGEHLRICPQGYTCCTSEMEENLANRSHAELETALRDSSRVLQAMLATQLRSFDDHFQHLLNDSERTLQATFPGAFGELYTQNARAFRDLYSELRLYYRGANLHLEETLAEFWARLLERLFKQLHPQLLLPDDYLDCLGKQAEALRPFGEAPRELRLRATRAFVAARSFVQGLGVASDVVRKVAQVPLGPECSRAVMKLVYCAHCLGVPGARPCPDYCRNVLKGCLANQADLDAEWRNLLDSMVLITDKFWGTSGVESVIGSVHTWLAEAINALQDNRDTLTAKVIQGCGNPKVNPQGPGPEEKRRRGKLAPRERPPSGTLEKLVSEAKAQLRDVQDFWISLPGTLCSEKMALSTASDDRCWNGMARGRYLPEVMGDGLANQINNPEVEVDITKPDMTIRQQIMQLKIMTNRLRSAYNGNDVDFQDASDDGSGSGSGDGCLDDLCSRKVSRKSSSSRTPLTHALPGLSEQEGQKTS
# B12: anti-Glypican-1 antibody clone K090-01a033 (antibody, V domains shown)
# VH: B5 VH with E1Q, Q5K, S24A, R31G, H39Q, L106F
# VL: DIVMSQSPKSMSMSVGERVALSCKASENVGTYVSWYQQKPEQSPKLLIYGASNRYTGVPDRFTGSGSATDFTLTISSVQAEDLADYYCGQSYSYPLTFGAGTKLELKR
# How the values were obtained:
# human Glypican-1 [1] = target: T1, human Glypican-1 (UniProt P35052 24-530); assay: FACS
# T1 chain: B11 chain
# human Glypican-1 [2] = target: T1, human Glypican-1; assay: Biacore
# clone4 [3] = assay: FACS
# clone18 [4] = assay: FACS
# clone4 [5] = assay: Biacore
# clone18 [6] = assay: Biacore
binder,measurement,setting,value
B1,Kd,human Glypican-1 [1],4.47 nM
same,Kd,human Glypican-1 [2],26.9 nM
B2,Kd,human Glypican-1 [1],5.24 nM
same,Kd,human Glypican-1 [2],42.8 nM
B3,Kd,human Glypican-1 [1],5.92 nM
same,Kd,human Glypican-1 [2],24.9 nM
B4,Kd,human Glypican-1 [1],11.2 nM
same,Kd,human Glypican-1 [2],12400 nM
B5,Kd,human Glypican-1 [1],0.638 nM
same,Kd,human Glypican-1 [2],4.99 nM
B6,Kd,human Glypican-1 [1],1.72 nM
same,Kd,human Glypican-1 [2],2.52 nM
B7,Kd,human Glypican-1 [1],3.2 nM
same,Kd,human Glypican-1 [2],16.3 nM
B8,Kd,human Glypican-1 [1],2.25 nM
same,Kd,human Glypican-1 [2],1.28 nM
B9,Kd,human Glypican-1 [1],2.25 nM
same,Kd,human Glypican-1 [2],1.12 nM
B10,Kd,human Glypican-1 [1],6.36 nM
same,Kd,human Glypican-1 [2],16.2 nM
B11,Kd,clone4 [3],0.804 nM
same,Kd,clone18 [4],1.52 nM
same,Kd,clone4 [5],3.21 nM
same,Kd,clone18 [6],3.21 nM
B12,Kd,human Glypican-1 [1],0.583 nM
same,Kd,human Glypican-1 [2],8.9 nM
